From the DeepSol protein solubility set come the findings set out here.

The series can be described thus: soluble on expression in E. coli; label from the status in PepcDB or PDB records.
For the sequence “MSLAPIRLALIEGLSGPFANAGEAVDRNLRIAIEGVNARGGVRLPDGRHPLALVRFDSKNMVDESLLQLQAASDAGIRFVLQGNSSAAAAALSASIARHNDRAPDARMLFLNYAAVDPALTNEACSFWHFRFDASADMRMHALTEVIRADPSVKQVYLIGQDYTFGRQVAQLARRQLGEKRPDIAIAGEVLHPIGKVKDFAPYVARIAASGADAVITGNWGNDLTLLVKAARDAGLKARFFTFYGNSLGAPGAMGEAGVGRVVAVAEWHPNLGGTGSDAFYKAFRARYPAPVDDYPLLRDQMMIDLLATAIERAGTTEAGAVARALEGASLDTGFHRLTLRAEDHQAIQPLVVMQMARAGTPGAPFDIEGSGYGFRTLKVIPPAQTALPTTCRMARYEGHHHHHH”, the “soluble on expression in E. coli” value is “soluble”.
With “TEELEKAYDSLKESEEHLRLTLEGSKAGMWMWDLRANWKITPQMNALLGRSESSPIKYEEFISMIHPEDQERVAQAWNKAIECKDFYDQEYRIFLPDGSIHWLSSKGSVIELHSGIRQLMGITTDIT” the entry was “not soluble”; with “MKIEVWSDFVCPFCYMGKRRLEIALNEFEYKTDVEISFKSFELDPSAKKEYSENIHELIAKKYKISVEQAKASNDQIVLQAEAIGLNYNFNKLIPTNTFDAHRLSQYAKTKGKMNELSEKIFKAYFVDSLNISDYKVLADLAEEVGISRDESLRILESNQYNEEVREDEKNASKLGIDAVPYFVFDDKYAVSGAQPAEVFLEALYKIDKE”, “not soluble”; with “MGKEYPYGLLRCFVRRIGKPTDSPRMTSAPTSNQSNPAWSRDELVLALNLYLLHRNGLPGVNHPDVLALSQALNLIGNATGVSKNQSFRNANGVCMKLNNFRRWDPSYTNNGRTGLAKGNKDEQLVWLEFANDPERLAEVVAAINANVQMIPASPIDLSAADDPGFFEAEEGKVLTRVHRVRERDKKIVKRKKEEALTQHGALQCEACGFNFSQTYGADVEGVIDVHHTKPLHTLQPGDKTKLADLALLCANCHRVLHSQRKWLSVAEVKERYQANLKQIQMLEHHHHHH”, “soluble”.
Under “SLSSKDKDTVKALWGKIADKAEEIGSDALSRMLAVYPQTKTYFSHWKDLSPGSAPVNKHGKTIMGGIVDAVASIDDLNAGLLALSELHAFTLRVDPANFKILSHCILVLLAVKFPKDFTPEVHISYDKFFSALARALAEKYR” stands “soluble”; under “MPSKQDVLLLDYWDQWAEAYRINGKSINTVYRYKLFRKHLKSRFDGRKLNSIRPIEWQKFINDFAAGKDRKEKTTRKRPRERSKDIVTKMNSYVRGMVKAAINERILFSDFTFGTKTSGVRSSGKVKVLEHHHHHH”, “soluble”; under “MRNVLKAETLERKFPLLSVENGCIVSKDADLTVAFEVELPELFTMTAAEYEAVHSSWVKAVKVLPDFSVVCKQDWFTKETYRPDFRDGEQSFLSKSYERHFNERPYLNHKCYLYLTKTTRERSRQRSDFNSLCCGSLLPKEMVDKDTAVRFLEAVEQFERIMNDSGHVSLRRLEADEITGTEGRPGLVEKYFSLSLEDETAVLQDICLNPGGMRVGDKRLCVHTLSDTEDLPVRVSTDMRYGRMSTDRSDCRLSFAAPVGLLLPCNHIYSQYVFIDDAQEILRTMEKTSRNMLSLSKYSRSNAVNREWTEMYLDEAHTKGVLPVRCHCNVMAWAEDREELRRVKNDTGSQLAMMECTPRHNTVDAPVLYWAGIPGNAGDFPAEESFYTFLEQAVCLFTAETNYRSSSSPFGIRMADRRNGIPLHVDISDLPMKRGIITNRNKFVLGPSGSGKSFFTNHLVRQYYEQGTHILLVDTGNSYQGLCRMIHDRTHGEDGIYITYEEDNPIAFNPFYTDSGQFDVEKRESIKTLILTLWKREDEAPKRSEEVALSGAVNAYIRRITDDRASRPDFNGFYEFVRDDYRRMIEQKKVREKDFDIDGFLNVLEPFYRGGDYDFLLNSDKELDLTNKRFIVFELDNISSNKVLLPVVTLIIMETFISKMRKLRGIRKMILIEECWKALMSANMSEYIKYLFKTVRKYFGEAVVVTQEVDDIISSDIVKEAIINNSDCKILLDQRKYMNKFEHIQKLLGLTEKERGQILSINRANRPGPFYREVWIGLGGTHSAVYATEVSAEEYAVRP”, “not soluble”.
With “MSLKQVPDVNKIKFDPETKRIVRKDVPLMMNSFDKKAVEEAIRISERHGWETCVATMGPPQAVEVINEALRMGIERGYLITDPSLANSDTLITSRVLAAFALRYGPDLVLMGKYSLDGETSQVPAEVSALMGWPYVPSVSKIMISDHLELEQELENGIYTCSAPLPCVLSLSEKINRARAIKPDTPQMYDRIVQIDTKWLGLDLDGGRDSPTAVIGTEQVNSNRSPVFIDPGADMYRQIMEIIRVSRKNDRMKTIDLNYAEFRGEAWAIAIDSENASLEIASKVADIASENSFYVRVIGNVEFSDPRSVPAHHVDIISGTDAVGLSYYIVDEIKKHSPEFLIFPSTVTGRQISSLVAARFGLGLTADCVDLSYGDRGLLQYKPAFGGGVIAEIISRKKPAMATARPGMFRKVKVNIEPSISHMSLDPAGRIRYGQFIPVPQEFKPLEGSRLILGIGRGLKRKEDLPKIMELASMLGASVGGSRPIVDMNYIPRQQQIGLTGSAVSPDVYIALGISGQDNHIVGLRYARKIIAVNTDRNAPIFRYSDYGIIMDLMQFVEGFLHFLNAEGHHHHHH” the entry was “not soluble”; with “MSLIARRNPIEQLPAIAQDPDKFGVLLSAAEFRTHLVESIRQARKRIYLVALYLENDDAGREILTELYAAKQRNPGLEIHICVDWHRAQRGLIGAAESEGNAAMYRDFAQQHEHCIPVYGIPVRGREVFGVLHLKGFIIDDQVIYSGASLNNVYLQFHGRYRFDRYHTLENAELADSMVHFIQQEMLAHPAVNNLACGSKPTTKEIKSDIRQFRASLAQANYQFAKQKVNEGQVAVTPLVGLGRRRNRLNQSIIQLLASAKDEVFICTPYFNFPPSIAKEVKKALRRGVKVHIVIGDKTANDFYIAPEEPFKTIGGLPYLYELNLRRFAKANEAHIASRKLSIHLWKHENHSFHLKGIWVDKRYMLITGNNLNPRAWKLDLENAILIRDDYHHLTTKFEAEIDNILQHTQLICTYKQIEKPEHYPEKVQRLVRRIMRLKADRVLKQILEGHHHHHH”, “not soluble”.
For the sequence “SNDYRVAVFGAGGVGKSSLVLRFVKGTFRESYIPTVEDTYRQVISCDKSICTLQITDTTGSHQFPAMQRLSISKGHAFILVYSITSRQSLEELKPIYEQICEIKGDVESIPIMLVGNKCDESPSREVQSSEAEALARTWKCAFMETSAKLNHNVKELFQELLNLEKRRTVSL”, the “soluble on expression in E. coli” value is given as “soluble”.
Under “MTTQIELGDITVDVVLKDIKNIHLSVYPPNGRVKISAPLRMDIDTIRVFAISRLGWIKQQRKKFQEQERETPREYLDLESHYVWGKRYLLKVIEVNEAPSVELKHSKMILRVRPGTDDKKRQSIIDAWYREQLKKAIPPLIARWEPLLGVKVERFFVQRMRTKWGSCNHKARNIRLNTELAKKPEECLEYTIVHEMAHILEPTHNSHFITLMDQFMPKWQFCRDRLNQLPVRHEDWIYLEHHHHHH” stands “soluble”; under “MSLKLQASNVTNKNDPKSINSRVFIGNLNTALVKKSDVETIFSKYGRVAGCSVHKGYAFVQYSNERHARAAVLGENGRVLAGQTLDINMAGEPKPDR”, “soluble”; under “MAHHHHHHMEMHATHVAACSLRRLRSSAVTSRVMTSTHLSLPCRLKSYVLKFLRGQLPEDLKDLNGALGCLYGTLPDVDEFGQFVIAPEIVERFHQLGYIKLPRPVLDAQQVDKLADEVNELANNVEHHPKTEKLYATSLANLTEGPLFYCQGQWRAAWGMHDLIYLPTITVAASQILGNSIVRLWYDEVFMKEARKGPCVPWQQNYARWQHTTPVNHVTVMIALDTMNKDRGAPCLVPGSHRWREGGLLPSVPYDPAKDEAQQLNTIWEITNEEESEMLMDTPPATVDMKRGEALLIHPLTLFATHGNRSLDAVRCCFIHYMGGKTYATQNGPLLPHTTQFQAGAMIQGPFYPVVFDPAMTEELAMLPGESAAQKDITEEV”, “soluble”.
With “MGSDKIHHHHHHMSNLQKVIVFGASGFLGEHIIKSLISENWDVYAAVRTKPESSTDGFNQTQVTYYEGDLEDQKYIQDAIAGMDAIIFSAGCTWKSDLEISEYYRRNVQITKNFFTALGDRPNVRIVYTSSMSVIAGSKSDYIFFEDSDRSQVSQNQLSPYDLAKIECEQIALDYAQRGNNLVILNPGNMLGPGVFNHSKITTSILVLWFCQKQFPFYINGGHSYCDVRDVAKAHVAALTRGRSGERYIVAGDNLDMASISSLLVKMTGFKMPQQLPASGVYLLSLLLESLSLLSFRLFKNPYHPDFVKSFALHYYANSQKAIKELAYNITPIETTLIDTIKYFGKRELLSEDLNFFALMTHSNIQSLIYLRQLASQHTFSQFLLSKISQIYGICQSNLSLNNVLDNLVNHSKFNIKTGKFQPDKTKCQEDLKSINQLFEYLYFASNDFLSEVI” the entry was “not soluble”.
With “MGHHHHHHSHMENKGVVALYHYFYGPALIPYFSHTHNPQRSPDFSERQRRREITLTVDGFVPPSSTEDLGDGFYSYAWTNQQVINPGEYLVCHLEGRDINVINGGFTPRDTAPLYAVQAFQDEETNGSLSFIILCKPKEPYRFI”, the “soluble on expression in E. coli” value is on record as “not soluble”.
Under “MGSDKIHHHHHHMTDAPGPLEPLGSTGGPILDRPAFERLTTTHRRALKLHCYRMMGSLHEADDLVQETFLKAWRGRAQFDGRGSPRGWLYTIATNACLNAIKARSSAHRILEEPARPPSEGRAAAGLAAELSWLEPYPDAELPDLIDGEPGPDARYETSEAVRLAFVAAIQLLPPRQRASLLLCDVLGWSALETAQLLGGSTASVNSALQRARATLGERYPQGRPQQRSQPNPEEGVLLERYISAWQAANLDGFIALLREDATYHMPPWRDWYRGRPAIHGFFKTVWGNFAGYRAVATRANGQPAVAIYARRHQEPEWRAQSLHVIEPAYGAIASLTVYVAPLGPGLFAAFGLPPVWSGPQA” stands “not soluble”.
With “MGSDKIHHHHHHMKLVDSIYGTYTVEPVISELIDSAPVQRLKGIHQGGACYIVKPSWNVTRFEHSIGVMLLIRKLGGSLEEQIAGLLHDVSHTAFSHVIDYVLAEEEEDYHEQIYEQVIRASEIPHILDKYGFDLERIVLNHSCWTLLEQPSPSLCADRIDYTLRDLYTYGHINKQEVDDFIANLIVVDGIISTSSVAGAEWFVRAYYKEVIDFFLDPLNVYGSSVLTSVLKSAVERKALGLDDFLKTDEELMEQLQRLNDDSIQKQLATLHPHVNVRENENHYHIHKTNKLRLIDPHVYLDGTFQRISSLSKQVKKWNEEAQRRADRGAYVEVLSS” the entry was “not soluble”.
